In one experiment the target is HLA-DR4 (human). Nature of the experiment: competition ELISA, tracer HA 306-318. Background: ELISA stands for enzyme-linked immunosorbent assay.
In a further experiment the target is HLA-DR1 (human). Nature of the experiment: competition ELISA, tracer HA 306-318.
In a further experiment the target is HLA-DR11 (human). As to the kind of experiment: competition ELISA, tracer HA 306-318.
The next experiment has as its target HLA-DR7 (human). As to the kind of experiment: competition ELISA, tracer YKL.
The next experiment addresses HLA-DRB5 (human). As to the kind of experiment: competition ELISA, tracer not stated.
For a further experiment, the target named is HLA-DR15 (human). Nature of the experiment: competition ELISA, tracer A3 152-166.
Experiment [1] deals with T1, HLA-DP4 (DPB1*0401) (human), P20036.
T1 chain 1: not shown
T1 chain 2: not shown
Nature of the experiment: competition ELISA, tracer Oxy 271-287.

The target of experiment [2] is T2, HLA-DP4 (DPB1*0402) (human), P20036.
T2 chain 1: not shown
T2 chain 2: not shown
Nature of the experiment: competition ELISA, tracer Oxy 271-287.

A word on the IC50: it is the concentration that inhibits the measured activity by half. Lower therefore signals greater potency in that assay.

For the molecule ASSYAAAQRKLLTPV (modifications not checked) [A15V], the IC50 with HLA-DR4 (human) turned out to be 35.5 µM; with HLA-DR1 (human), 1.2 µM; with HLA-DR11 (human), 0.004 µM; in the experiment with HLA-DR7 (human), 1.73 µM; with HLA-DRB5 (human), 0.463 µM; with HLA-DR15 (human), 26.5 µM.

As to ALWNLHGQALFLGIVL (modifications not checked) [A16L], the IC50 with HLA-DR1 (human) came to 0.079 µM; with HLA-DR11 (human), 11 µM; with HLA-DR7 (human), 0.122 µM; in the experiment with HLA-DRB5 (human), 2.68 µM; with HLA-DR15 (human), 0.048 µM; in experiment [1] it was 1.18 µM. In experiment [2], this molecule returned an IC50 of 0.725 µM.

For DPHLPTLLLGTSGSGGDDDDPHGPVQLSYYD (modifications not checked) [D31D], the IC50 in the experiment with HLA-DR1 (human) amounted to 17.3 µM; with HLA-DR11 (human) it was 25 µM; with HLA-DR7 (human), 27.5 µM; with HLA-DR15 (human), 0.251 µM; in experiment [2], 28.3 µM.

The values above are taken from patent publication US20090130134A1, “T CD4+ Epitopes of Type I and II Latency Antigens of the Epstein-Barr Virus, Which Can Be Recognized by the majority of individuals in the caucasian populations and applications thereof” (priority 2005, published 2009).
